The values below come from publication PMC6274866.

The target in test [1] is STIM2-2β-OASF (residues 238–504 containing the naturally occurring VAASYLIQ insertion after E383) (human). Briefly: SEC-MALS; 1 mg/mL protein injected on Superdex 200 Increase 10/300 GL at 10 °C; 20 mM TRIS, 300 mM NaCl, 1 mM DTT, pH 8.0; without CaCl2; stoichiometric ratio = MALS molecular weight / theoretical monomer mass.
The target is the same in test [2]. Briefly: SEC-MALS; 1 mg/mL protein injected on Superdex 200 Increase 10/300 GL at 10 °C; 20 mM TRIS, 300 mM NaCl, 1 mM DTT, pH 8.0; with 25 mM CaCl2; stoichiometric ratio = MALS molecular weight / theoretical monomer mass.

Sequence of STIM2-2β-OASF (residues 238–504 containing the naturally occurring VAASYLIQ insertion after E383) (domain or fragment) (Q9P246 238-504): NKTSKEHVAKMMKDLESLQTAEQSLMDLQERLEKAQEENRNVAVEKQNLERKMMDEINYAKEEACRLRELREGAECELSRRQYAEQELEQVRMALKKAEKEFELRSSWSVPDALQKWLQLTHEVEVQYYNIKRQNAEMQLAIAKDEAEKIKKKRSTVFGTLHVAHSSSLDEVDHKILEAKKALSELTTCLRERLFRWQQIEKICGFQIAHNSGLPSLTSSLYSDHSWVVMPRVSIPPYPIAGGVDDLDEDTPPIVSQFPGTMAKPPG

“STIM2-2β-OASF (residues 238–504 containing the naturally occurring VAASYLIQ insertion after E383) (domain or fragment)”: the stoichiometry N in test [1] is 1.96; in test [2] it was 1.97.
